Test results reported in article PMC11385167 (mAbs, 2024).

Target: T1, human MR C-type 1, full extracellular domain (human, UniProt P22897 19-1389)
T1 sequence (looked up): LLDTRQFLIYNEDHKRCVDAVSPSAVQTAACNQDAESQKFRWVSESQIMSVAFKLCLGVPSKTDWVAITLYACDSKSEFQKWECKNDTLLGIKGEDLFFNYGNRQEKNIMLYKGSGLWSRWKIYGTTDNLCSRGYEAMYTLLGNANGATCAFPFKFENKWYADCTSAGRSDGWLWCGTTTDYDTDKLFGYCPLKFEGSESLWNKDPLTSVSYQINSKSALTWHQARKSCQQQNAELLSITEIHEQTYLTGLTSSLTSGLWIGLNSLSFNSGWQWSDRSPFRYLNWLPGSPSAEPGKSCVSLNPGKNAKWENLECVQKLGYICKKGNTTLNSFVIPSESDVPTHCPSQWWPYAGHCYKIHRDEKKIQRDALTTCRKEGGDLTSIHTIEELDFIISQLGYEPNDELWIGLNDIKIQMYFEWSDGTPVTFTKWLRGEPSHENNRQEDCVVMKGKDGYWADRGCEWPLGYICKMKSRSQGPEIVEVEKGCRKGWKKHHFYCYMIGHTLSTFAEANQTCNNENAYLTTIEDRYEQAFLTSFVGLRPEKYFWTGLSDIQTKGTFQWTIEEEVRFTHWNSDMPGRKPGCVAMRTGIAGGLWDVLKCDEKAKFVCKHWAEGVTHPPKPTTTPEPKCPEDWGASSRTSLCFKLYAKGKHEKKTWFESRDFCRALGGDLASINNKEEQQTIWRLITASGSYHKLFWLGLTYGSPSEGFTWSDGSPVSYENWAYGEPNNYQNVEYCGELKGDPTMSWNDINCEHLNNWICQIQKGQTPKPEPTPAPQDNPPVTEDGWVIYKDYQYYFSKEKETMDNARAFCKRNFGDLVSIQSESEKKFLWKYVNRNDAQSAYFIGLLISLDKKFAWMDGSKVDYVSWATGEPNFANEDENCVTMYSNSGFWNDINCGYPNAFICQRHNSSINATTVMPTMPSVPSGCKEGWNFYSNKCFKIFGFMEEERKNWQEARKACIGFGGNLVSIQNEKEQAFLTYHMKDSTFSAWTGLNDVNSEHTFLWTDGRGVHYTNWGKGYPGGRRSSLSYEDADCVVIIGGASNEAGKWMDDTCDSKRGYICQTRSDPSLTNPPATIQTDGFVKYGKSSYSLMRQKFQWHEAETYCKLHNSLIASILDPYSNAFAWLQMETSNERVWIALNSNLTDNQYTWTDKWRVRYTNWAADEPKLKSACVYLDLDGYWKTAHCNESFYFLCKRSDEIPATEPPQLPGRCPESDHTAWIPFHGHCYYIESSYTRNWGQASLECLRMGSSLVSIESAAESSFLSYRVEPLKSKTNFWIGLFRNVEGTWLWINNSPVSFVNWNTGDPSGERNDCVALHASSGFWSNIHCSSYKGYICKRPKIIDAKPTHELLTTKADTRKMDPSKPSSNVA
Assay: SPR

B1: RNAse B (enzyme, UniProt P61823 27-150, looked up)
chain: KETAAAKFERQHMDSSTSAASSSNYCNQMMKSRNLTKDRCKPVNTFVHESLADVQAVCSQKNVACKNGQTNCYQSYSTMSITDCRETGSSKYPNCAYKTTQANKHIIVACEGNPYVPVHFDASV
modifications: single N-glycosylation site containing mainly M5 and M6 N-glycans
Q: How did the Kd turn out when B1 was run?
A: 1300 nM
